# Assay results: PMC8346517, “The intervening domain is required for DNA-binding and functional identity of plant MADS transcription factors” (Nature Communications, 2021)
# B1: SEP3^MI (MADS-box and I domain of …3, residues 1-90) (domain or fragment)
# chain: not shown
# notes: His6-MBP fusion from the vector pETM41, cleaved with TEV protease; residues 1-18 and the 17 C-terminal residues are disordered in the crystal; also called SEP3 MI domain; source: E. coli BL21 Codon Plus, purified (Ni-NTA, heparin, TEV cleavage, Ni-NTA, heparin)
# Molecular target: the molecule itself
# Assay: crystal structure; SEP3 MI at 6 mg/ml, without DNA; 0.2 M potassium sodium tartrate, 0.1 M bis-tris propane pH 7.5, 20% PEG 3350, 4 °C; space group C222(1), dimers formed by crystallographic symmetry
protein,measurement,value
B1,binding result,binds
